Reference: the supplement of paper PMC6757056
± gives the standard deviation of the averaged measurements.

B1: library; a variant is named by its letters at N, in order (parent)
chain: GCUGUCACCGAGAAACUGUGAAGUAUAUCUUAAACCUGGGCACUUAAAAGAUAUAUGGAGUUAGUAGUGCAACCUGCUCGGUCUGAUGAGUCCNNNNNNGGACGAAACAGC

Columns and labels:
cyclic di-GMP [1] = variants of: B1; assay: normalized RNA/DNA level without ligand (relative to sTRSVctl = 100) (log10 (% of sTRSVctl)); HEK293T; ligand: cyclic di-GMP (c-di-GMP-II aptamer); higher = less ribozyme self-cleavage, higher mRNA level; conditions: reporter: mCherry (pCS4076), ligand present: no
Outline: (§1)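 Ribozyme switch library plasmids with mCherry reporters (eGFP in certain ligand experiments) went into HEK293T cells at 4 µg per 6-well well. Where ligand was used, it was applied 1 h before transfection, and total RNA was extracted with EDTA 72 h later for reverse transcription, amplification, barcoding and sequencing. RNA level is the RNA-to-DNA read ratio normalized to a spiked-in non-cleaving sequence or to the leading sequences, then scaled and log-transformed. Scaling was ×100 with log10, the leading set comprised 25 sequences, and the cutoff was ≥100 DNA reads.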

cyclic di-GMP [2] = variants of: B1; assay: normalized RNA/DNA level with ligand (relative to sTRSVctl = 100) (log10 (% of sTRSVctl)); HEK293T; ligand: cyclic di-GMP (c-di-GMP-II aptamer); ligand concentration (+) RNA-Seq: 1 mM; higher = less ribozyme self-cleavage, higher mRNA level; conditions: reporter: mCherry (pCS4076), ligand present: yes
Outline: as §1

Row | Variant | normalized RNA/DNA level without ligand (log10) (cyclic di-GMP [1]) | normalized RNA/DNA level with ligand (log10) (cyclic di-GMP [2])
1 | GCUGUCACCGAGAAACUGUGAAGUAUAUCUUAAACCUGGGCACUUAAAAGAUAUAUGGAGUUAGUAGUGCAACCUGCUCGGUCUGAUGAGUCCAUUGACGGACGAAACAGC [AUUGAC] | 1.663 ± 0.0079 | 1.79 ± 0.15
2 | GCUGUCACCGAGAAACUGUGAAGUAUAUCUUAAACCUGGGCACUUAAAAGAUAUAUGGAGUUAGUAGUGCAACCUGCUCGGUCUGAUGAGUCCAUUGAGGGACGAAACAGC [AUUGAG] | 1.57 ± 0.018 | 1.7 ± 0.13
3 | GCUGUCACCGAGAAACUGUGAAGUAUAUCUUAAACCUGGGCACUUAAAAGAUAUAUGGAGUUAGUAGUGCAACCUGCUCGGUCUGAUGAGUCCCUUCUGGGACGAAACAGC [CUUCUG] | 1.78 ± 0.061 | 1.85 ± 0.057
4 | GCUGUCACCGAGAAACUGUGAAGUAUAUCUUAAACCUGGGCACUUAAAAGAUAUAUGGAGUUAGUAGUGCAACCUGCUCGGUCUGAUGAGUCCCUUCUUGGACGAAACAGC [CUUCUU] | 1.5858 ± 0.00043 | 1.75 ± 0.2
5 | GCUGUCACCGAGAAACUGUGAAGUAUAUCUUAAACCUGGGCACUUAAAAGAUAUAUGGAGUUAGUAGUGCAACCUGCUCGGUCUGAUGAGUCCAUUCUGGGACGAAACAGC [AUUCUG] | 1.68 ± 0.071 | 1.81 ± 0.11
6 | GCUGUCACCGAGAAACUGUGAAGUAUAUCUUAAACCUGGGCACUUAAAAGAUAUAUGGAGUUAGUAGUGCAACCUGCUCGGUCUGAUGAGUCCAUUCUUGGACGAAACAGC [AUUCUU] | 1.72 ± 0.052 | 1.88 ± 0.11
7 | GCUGUCACCGAGAAACUGUGAAGUAUAUCUUAAACCUGGGCACUUAAAAGAUAUAUGGAGUUAGUAGUGCAACCUGCUCGGUCUGAUGAGUCCGUUGAAGGACGAAACAGC [GUUGAA] | 1.44 ± 0.083 | 1.65 ± 0.12
8 | GCUGUCACCGAGAAACUGUGAAGUAUAUCUUAAACCUGGGCACUUAAAAGAUAUAUGGAGUUAGUAGUGCAACCUGCUCGGUCUGAUGAGUCCUUUGACGGACGAAACAGC [UUUGAC] | 1.71 ± 0.03 | 1.87 ± 0.11
9 | GCUGUCACCGAGAAACUGUGAAGUAUAUCUUAAACCUGGGCACUUAAAAGAUAUAUGGAGUUAGUAGUGCAACCUGCUCGGUCUGAUGAGUCCUUUGAAGGACGAAACAGC [UUUGAA] | 1.59 ± 0.017 | 1.76 ± 0.1
10 | GCUGUCACCGAGAAACUGUGAAGUAUAUCUUAAACCUGGGCACUUAAAAGAUAUAUGGAGUUAGUAGUGCAACCUGCUCGGUCUGAUGAGUCCUUUCUGGGACGAAACAGC [UUUCUG] | 1.795 ± 0.012 | 1.92 ± 0.091
11 | GCUGUCACCGAGAAACUGUGAAGUAUAUCUUAAACCUGGGCACUUAAAAGAUAUAUGGAGUUAGUAGUGCAACCUGCUCGGUCUGAUGAGUCCUUUCUCGGACGAAACAGC [UUUCUC] | 1.8 ± 0.024 | 1.92 ± 0.085
12 | GCUGUCACCGAGAAACUGUGAAGUAUAUCUUAAACCUGGGCACUUAAAAGAUAUAUGGAGUUAGUAGUGCAACCUGCUCGGUCUGAUGAGUCCGUUCUCGGACGAAACAGC [GUUCUC] | 1.75 ± 0.035 | 1.88 ± 0.068
13 | GCUGUCACCGAGAAACUGUGAAGUAUAUCUUAAACCUGGGCACUUAAAAGAUAUAUGGAGUUAGUAGUGCAACCUGCUCGGUCUGAUGAGUCCGUUCUUGGACGAAACAGC [GUUCUU] | 1.7 ± 0.084 | 1.84 ± 0.12
